Results as given in IntAct's records for PubMed 25946333.

Columns and labels:
nemp1_mouse Nemp1 [1] = target: T1, nemp1_mouse Nemp1 (UniProt Q6ZQE4)
T1 sequence: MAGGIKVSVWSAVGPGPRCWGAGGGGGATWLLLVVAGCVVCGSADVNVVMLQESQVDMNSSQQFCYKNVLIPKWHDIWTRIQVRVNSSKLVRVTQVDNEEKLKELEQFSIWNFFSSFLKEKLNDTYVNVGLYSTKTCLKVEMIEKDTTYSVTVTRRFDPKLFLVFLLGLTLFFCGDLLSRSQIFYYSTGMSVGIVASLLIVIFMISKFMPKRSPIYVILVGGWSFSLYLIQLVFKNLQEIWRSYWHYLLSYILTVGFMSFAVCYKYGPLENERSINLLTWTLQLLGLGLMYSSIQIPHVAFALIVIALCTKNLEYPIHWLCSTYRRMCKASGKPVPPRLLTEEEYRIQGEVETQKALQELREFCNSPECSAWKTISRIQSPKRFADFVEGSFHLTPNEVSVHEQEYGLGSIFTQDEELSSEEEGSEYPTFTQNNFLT

nemp1_mouse Nemp1 [2] = target: T1, nemp1_mouse Nemp1; remark: listed apart in the source

effect of a mutation on the interaction (nemp1_mouse Nemp1 [1]) | effect of a mutation on the interaction (nemp1_mouse Nemp1 [2]) | Substance
disrupting interaction strength | – | GTP-binding nuclear protein Ran (Mus musculus) (from UniProt P62827) T42A
with no effect | – | GTP-binding nuclear protein Ran (Mus musculus) (from UniProt P62827) Q69L
disrupting interaction strength | decreasing interaction strength | GTP-binding nuclear protein Ran (Mus musculus) (from UniProt P62827) T24N
